These results are taken from patent US20100055121A1 (US Dept. of Health and Human Services, published 2010).

For assay [1], the target named is T1, HLA-A0201 molecules on T2 (HLA-A2+) cells (human).
T1 construct: whole, on cells; MHC class I molecule on T2 cells; also called HLA-A2.1
Kind of assay: T2 cells loaded with 25 µM peptide, brefeldin A chase, HLA-A02 flow cytometry over time. The procedure:
(§1) HLA-A2 binding assay. […] T2 cells (1×10⁶) in serum-free Iscove's modified Dulbecco's medium were incubated in the presence of various concentrations of each peptide, in 24-well culture plates at 37° C. with 5% CO₂. After 18 hours in culture, T2 cells were harvested, washed with 1× phosphate buffered saline (PBS) (Invitrogen) and stained with 20 μl of a FITC-conjugated anti-HLA-A02-specific monoclonal antibody (MAb) (One Lambda, Inc., Canoga Park, Calif.). A FITC-conjugated IgG2a MAb (BD Biosciences, San Jose, Calif.) was used as an isotype control. Data acquisition and analysis were conducted on a FACSCalibur™ system using the CELLQueSt™ software (BD Biosciences). Results were expressed as mean fluorescence intensity (MFI) collected on a log scale. […] Assuming first order kinetics, the log₂ of MFI/MFI₀ (MFI is the fluorescence at each time point and MFI₀ the initial fluorescence at time 0) was plotted against time (minutes). The decay rate constant was calculated as the slope of the linear regression for each curve and the half-life of each peptide-MHC complex was calculated as […].
In silico-predicted epitopes were then assessed for binding to the MHC molecules in a cell-based assay. TAP-deficient T2 (HLA-A2+) cells were incubated in the presence of 25 μM of each peptide and subsequently tested for cell surface MHC-stabilization by bound peptides.

For assay [2], the target named is T1, HLA-A0201 molecules on T2 (HLA-A2+) …. Kind of assay: T2 cell surface HLA-A02 stabilisation, flow cytometry, 25 µM peptide. As for the experimental part: as §1
In silico-predicted epitopes were then assessed for binding to the MHC molecules in a cell-based assay. […]

RLIASWTPV (Synthesized at >90% purity) [Brachyury peptide T-p3]: in assay [1], the “half-life of MHC-peptide complex” value turned out to be 3.75 h.
Regarding WLLPGTSTL (Synthesized at >90% purity) [Brachyury peptide T-p2], the “half-life of MHC-peptide complex” value in assay [1] was found to be 8.57 h.
In the case of SQYPSLWSV [Brachyury peptide T-p1], in assay [2], the binding result was “binds”.
With AMYSFLLDFV (Synthesized at >90% purity) [Brachyury peptide T-p4], the “half-life of MHC-peptide complex” value in assay [1] was found to be 5.2 h.
